Read-outs that look alike come from different tables or passages of the source.
Columns and labels:
[1] = Stability of radioligands in PBS buffer (radio-HPLC); assay type: physicochemical
Protocol: The purpose of this experiment was to test the stability of the radioligands under buffer conditions simulating the physiological environment. This stability is a prerequisite for further animal experiments.
(§1) 1. ^68Ga-SDYD01: ^68Ga-SDYD01 was added to PBS buffer (pH=7.4) and incubated at 37° C. The mixture samples were taken for radio-HPLC analysis after 0.5 hours, 1 hour, and 2 hours of incubation. The stability of ^68Ga-SDYD01 in PBS buffer: the radiochemical purities of ^68Ga-SDYD01 after incubation in PBS for 0.5 hours, 1 hour, and 2 hours were 98%, 97%, and 97%, respectively (FIG. 4).
(§2) 2. ^177Lu-SDYD01: ^177Lu-SDYD01 was added to PBS buffer (pH=7.4) and incubated at 37° C. The mixture samples were taken for radio-HPLC analysis after 24 hours, 48 hours, and 120 hours of incubation. The stability of ^177Lu-SDYD01 in PBS buffer: the radiochemical purities of ^177Lu-SDYD01 after incubation in PBS for 24 hours, 48 hours, and 120 hours were 97%, 96%, and 94%, respectively (FIG. 5).
as §1, with “^68Ga-SDYD02: ^68Ga-SDYD02” for “^68Ga-SDYD01: ^68Ga-SDYD01”, “^68Ga-SDYD02” for “^68Ga-SDYD01”, “96%, 95%” for “98%, 97%,”, “93%,” for “97%,”, “10).” for “4).”
as §2, with “^177Lu-SDYD02: ^177Lu-SDYD02” for “^177Lu-SDYD01: ^177Lu-SDYD01”, “^177Lu-SDYD02” for “^177Lu-SDYD01”, “95%, 91%” for “97%, 96%,”, “87%,” for “94%,”, “11).” for “5).”
as §1, with “1. ^68Ga-SDYD05: ^68Ga-SDYD05” for “1. ^68Ga-SDYD01: ^68Ga-SDYD01”, “of ^68Ga-SDYD05” for “of ^68Ga-SDYD01”, “98%, 96%” for “98%, 97%,”, “and 95%,” for “and 97%,”, “(FIG. 16).” for “(FIG. 4).”
as §2, with “^177Lu-SDYD05: ^177Lu-SDYD05” for “^177Lu-SDYD01: ^177Lu-SDYD01”, “^177Lu-SDYD05” for “^177Lu-SDYD01”, “97%, 96% and” for “97%,”, “96%,” for “96%, and 94%,”, “17).” for “5).”
1. ^68Ga-SDYD06: ^68Ga-SDYD06 was added to PBS buffer (pH=7.4) and incubated at 37° C. The mixture samples were taken for radio-HPLC analysis after 0.5, 1, and 2 hours of incubation. The stability of ^68Ga-SDYD06 in PBS buffer: the radiochemical purities of ^68Ga-SDYD06 after incubation in PBS for 0.5 hours, 1 hour, and 2 hours were 96%, 94% and 93%, respectively (FIG. 22).
2. ^177Lu-SDYD06: ^177Lu-SDYD06 was added to PBS buffer (pH=7.4) and incubated at 37° C. The mixture samples were taken for radio-HPLC analysis after 24 hours, 48 hours, and 120 hours of incubation.
1. ^68Ga-SDYD03: ^68Ga-SDYD03 was added to PBS buffer (pH=7.4) and incubated at 37° C. The mixture samples were taken for radio-HPLC analysis after 0.5 hours, 1 hour, and 2 hours of incubation. The stability of ^68Ga-SDYD03 PBS in PBS buffer: the radiochemical purities of ^68Ga-SDYD03 after incubation in PBS for 0.5 hours, 1 hour, and 2 hours were 96%, 96% and 95%, respectively (FIG. 27).
as §2, with “^177Lu-SDYD03: ^177Lu-SDYD03” for “^177Lu-SDYD01: ^177Lu-SDYD01”, “^177Lu-SDYD03” for “^177Lu-SDYD01”, “are 99%, 96%” for “were 97%, 96%,”, “28). […]” for “5).”

[2] = Small animal PET imaging and biodistribution study; assay type: in vivo, NSG mice; details: mouse, in vivo, iv, 7.4 MBq, absolute uptake value in the tumor
Protocol: (§3) Eleven NSG mice bearing subcutaneous xenograft tumors (U87 MG cells), with tumor sizes approximately 150 mm^3, were used. The mice were intravenously injected via the tail vein with approximately 7.4 MBq of ^68Ga-labeled SDYD01, SDYD02, SDYD03. SDYD04, SDYD05, SDYD06, SDYD07, SDYD08 or SDYD07-1 compounds, or with ^[…]-labeled FAPI-04 or FAP2286 compounds as tracers. Micro PET/CT imaging was performed at 30 min, 60 min, and 120 min post-injection. Static images were acquired in 3D mode for 20 minutes. Reconstruction was performed using the OSEM3D/MAP method to obtain attenuation-corrected PET/CT fusion images.
(§4) NSG mice bearing subcutaneous xenograft tumors (U87 MG cells) were divided into 3 groups, with 11 mice in each group. They were intravenously injected via the tail vein with ^68Ga-labeled SDYD01, SDYD02, SDYD03. SDYD04, SDYD05, SDYD06. SDYD07, SDYD08, or SDYD07-1 compounds, or with ^68Ga-labeled FAPI-04 or FAP2286 compounds as tracers. Tumor-bearing mice injected with ^68Ga-labeled compounds SDYD01, SDYD02, SDYD03, SDYD04, SDYD05, SDYD06, FAPI-04, as well as 68Ga-labeled compounds FAPI-04 and FAP2286, were euthanized at 30 min. 60 min, and 120 min, respectively, for each group. Tumor-bearing mice injected with ^68Ga-labeled compounds SDYD07, SDYD08, and SDYD07-1 were euthanized at 30 min, 60 min, and 90 min, respectively, for each group. Blood, tumors, and other major organs and tissues were collected, weighed, and measured for radioactivity. After radioactive decay correction, the standardized uptake value (SUV) and percentage injected dose per gram of tissue (% ID/g) were calculated. In these figures, (a) represents the PET/CT imaging results, (b) represents the biodistribution results, and (c) represents the relative ratios of radioactive uptake in tumor versus normal tissues.

[3] = system: subcutaneous xenograft tumors (U87 MG cells); experiment: Small animal PET imaging and biodistribution study; assay type: in vivo, NSG mice; details: mouse, in vivo
Protocol: as §3, §4

## CCCCCC(=O)N[C@@H]1CSCc2cc(CSCCNC(=O)[C@@H](CCCCNC(=O)CN3CCN(CC(=O)O)CCN(CC(=O)O)CCN(CC(=O)O)CC3)NC(=O)COCCOCCNC(=O)COCCOCCNC(=O)CCN3C(=O)CC(SCCNC(=O)CCC(=O)N[C@@H](CCCNC(=N)N)C(=O)N[C@@H](CCCNC(=N)N)C(=O)N[C@@H](Cc4ccc5ccccc5c4)C(=O)N[C@@H]4CSSC[C@@H](C(=O)N[C@@H](CCCNC(=N)N)C(N)=O)NC(=O)[C@H](CCCNC(N)=O)NC(=O)[C@H](CCCNC(=N)N)NC(=O)[C@H](Cc5ccc(O)cc5)NC(=O)[C@@H]5CCCN5C(=O)[C@H](CCCCN)NC(=O)[C@H](CCCCN)NC(=O)[C@H](CCCNC(N)=O)NC(=O)[C@H](Cc5ccc(O)cc5)NC4=O)C3=O)cc(c2)CSC[C@@H](C(=O)O)NC(=O)[C@H](Cc2ccccc2)NC(=O)[C@H](CCC(N)=O)NC(=O)C([C@@H](C)O)NC(=O)[C@@H]2CCCN2C(=O)[C@@H]2CCCN2C1=O (single isomer, unassigned) [^177Lu-SDYD02, metal not drawn]
[1]
  stability in PBS buffer (in words): quite stable in PBS buffer

## CC(C)CC(CC(C)C)NC(=O)[C@H](Cc1cnc[nH]1)NC(=O)CNC(=O)C(NC(=O)[C@H](C)NC(=O)[C@H](Cc1c[nH]c2ccccc12)NC(=O)[C@H](CCC(N)=O)NC(=O)[C@@H](Cc1ccccc1)NC(=O)COCC(=O)Nc1ccc(CNC(=O)COCCOCCNC(=O)COCCOCCNC(=O)[C@H](CCCCNC(=O)CN2CCN(CC(=O)O)CCN(CC(=O)O)CCN(CC(=O)O)CC2)NC(=O)CCC(=O)N2CCN(CCCOc3ccc4nccc(C(=O)NCC(=O)N5CC(F)(F)C[C@H]5C#N)c4c3)CC2)cc1)C(C)C (single isomer, unassigned) [^177Lu-SDYD03, metal not drawn]
[1]; PBS buffer pH=7.4, 37° C.
  stability in PBS buffer (in words): quite stable in PBS buffer

## CCCCCC(=O)N[C@@H]1CSCc2cc(CSCCNC(=O)COCCOCCNC(=O)COCCOCCNC(=O)CSC3CC(=O)N(CCC(=O)N[C@H](CCCCNC(=O)CN4CCN(CC(=O)O)CCN(CC(=O)O)CCN(CC(=O)O)CC4)C(=O)NCc4ccc(C(=O)NCCC[C@@H]5C(=O)N[C@@H](CCCNC(=N)N)C(=O)N[C@@H](Cc6ccc7ccccc7c6)C(=O)NCC(=O)N[C@H](Cc6ccc(O)cc6)C(=O)N5C)cc4)C3=O)cc(c2)CSC[C@@H](C(=O)O)NC(=O)[C@H](Cc2ccccc2)NC(=O)[C@H](CCC(N)=O)NC(=O)C([C@@H](C)O)NC(=O)[C@@H]2CCCN2C(=O)[C@@H]2CCCN2C1=O (single isomer, unassigned) [^177Lu-SDYD06, metal not drawn]
[1]
  stability in PBS buffer (in words): quite stable in PBS buffer

## CCCCCC(=O)N[C@H]1CSCc2cc(CSCCNC(=O)[C@H](CCCCNC(=O)CCN3C(=O)CC(SCC(=O)NCCOCCOCCOCCOCCC(=O)NCCCC[C@@H]4NC(=O)[C@@H](Cc5ccc(O)cc5)NC(=O)[C@H](CC(=O)O)NC(=O)CNC(=O)[C@H](CCCNC(=N)N)NC4=O)C3=O)NC(=O)CCC(C(=O)O)N3CCN(CC(=O)O)CCN(CC(=O)O)CCN(CC(=O)O)CC3)cc(c2)CSC[C@@H](C(=O)O)NC(=O)[C@H](Cc2ccccc2)NC(=O)[C@H](CCC(N)=O)NC(=O)C([C@@H](C)O)NC(=O)[C@@H]2CCCN2C(=O)[C@@H]2CCCN2C1=O (single isomer, unassigned) [^177Lu-SDYD08, metal not drawn]
[1]
  stability in PBS buffer (in words): quite stable in PBS buffer

## N#C[C@@H]1CC(F)(F)CN1C(=O)CNC(=O)c1ccnc2ccc(OCCCN3CCN(C(=O)CCOCCOCCNC(=O)CCN4C(=O)CC(SC[C@H](NC(=O)CN5CCN(CC(=O)O)CCN(CC(=O)O)CCN(CC(=O)O)CC5)C(=O)NCCCC[C@@H]5NC(=O)[C@@H](Cc6ccc(O)cc6)NC(=O)[C@H](CC(=O)O)NC(=O)CNC(=O)[C@H](CCCNC(=N)N)NC5=O)C4=O)CC3)cc12 (stereo partly drawn) [^68Ga-SDYD07-1, metal not drawn]
[2]
  tissue uptake at 0.5 h: ~3 %ID/g
  tissue uptake at 1 h: ~3 %ID/g
[3]
  radioactive uptake in non-target organs (in words): relatively high non-specific uptake in both the kidneys and liver
  tumor uptake after 60 minutes (in words): decreased significantly after 60 minutes

## CN1C(=O)[C@@H](Cc2ccc(O)cc2)NC(=O)CNC(=O)[C@H](Cc2ccc3ccccc3c2)NC(=O)[C@H](CCCNC(=N)N)NC(=O)[C@H]1CCCNC(=O)c1ccc(CNC(=O)[C@H](CCCCNC(=O)CN2CCN(CC(=O)O)CCN(CC(=O)O)CCN(CC(=O)O)CC2)NC(=O)CCC(=O)NCCOCCOCC(=O)NCCOCCOCC(=O)N2CCN(CCCOc3ccc4nccc(C(=O)NCC(=O)N5CC(F)(F)C[C@H]5C#N)c4c3)CC2)cc1 [^177Lu-SDYD05, metal not drawn]
[1]
  stability in PBS buffer (in words): quite stable in PBS buffer

From patent US20260069728A1, “MULTI-TARGETING COMPOUND AND USE THEREOF” (Chengdu Shetai Medical Technology Co., Ltd., priority 2023, published 2026)
